According to paper PMC8881488, “Intricate coupling between the transactivation and basic-leucine zipper domains governs phosphorylation of transcription factor ATF4 by casein kinase 2” (The Journal of Biological Chemistry, 2022):

Biological target: T1, ATF4-275 (isolated transactivation domain of activating transcription factor 4) (human, UniProt P18848 1-275)
T1 construct: 15N-labelled (expressed in minimal medium) for the NMR titration; also called isolated TAD; ATF4 TAD; not shown: GST, N-terminal, cleaved
T1 sequence (looked up): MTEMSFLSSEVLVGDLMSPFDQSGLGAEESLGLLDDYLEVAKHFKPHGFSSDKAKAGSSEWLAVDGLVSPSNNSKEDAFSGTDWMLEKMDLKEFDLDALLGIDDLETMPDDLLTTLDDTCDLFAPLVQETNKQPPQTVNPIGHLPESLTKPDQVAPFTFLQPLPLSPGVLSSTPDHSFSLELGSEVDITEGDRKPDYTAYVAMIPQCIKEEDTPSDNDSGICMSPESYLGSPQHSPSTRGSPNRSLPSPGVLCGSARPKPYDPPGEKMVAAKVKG
Experiment: NMR titration; 15N-labeled ATF4-275 titrated with increasing concentrations of unlabeled ATF4-bZip; 2D 1H-15N TROSY-HSQC, amide crosspeak intensity ratios; NMR samples in 20 mM MES pH 6.5, 50 mM NaCl
Settings: both partners purified

binding result: binds
B1: ATF4-bZip (isolated basic-leucine zipper domain of activating transcription factor 4) (domain or fragment, human, UniProt P18848 276-351, looked up)
chain: EKLDKKLKKMEQNKTAATRYRQKKRAEQEALTGECKELEKKNEALKERADSLAKEIQYLKDLIEEVRKARGKKRVP
notes: The limits 276-351 are those printed for the bZip domain; also called bZip domain; isolated bZip domain; source: E. coli BL21(DE3), purified (Glutathione-Sepharose, TEV cleavage, Superdex 200 gel filtration); not shown: GST, N-terminal, cleaved
